According to US20120045393A1 (priority 2009, published 2012):
Read-outs that look alike come from different tables or passages of the source. Non-standard residues stand in square brackets, D forms with d. Residues, ends and D or L forms follow the SMILES beside them. Primed or numbered codes have the meaning given here. *: point of attachment. DO3A10CM(3) = metal chelator group attached at the N-terminus (X in table rows); DO3A10CM″ = chelating group at the N-terminus (X in the sequence tables); X1 = NC(=O)NNC(=O)[C@@H]1CCCN1C[C@H](Cc1ccc(C(=O)c2ccccc2)cc1)N*; DOTA = O=C(O)CN1CCN(CC(=O)O)CCN(CC(=O)*)CCN(CC(=O)O)CC1; Bpa = N[C@@H](Cc1ccc(C(=O)c2ccccc2)cc1)C(=O)O; d1Nal = N[C@H](Cc1cccc2ccccc12)C(=O)O; d2Nal = N[C@H](Cc1ccc2ccccc2c1)C(=O)O; d3Pal = N[C@H](Cc1cccnc1)C(=O)O; His(1-Me) = 1-methylhistidine; DO3A10CM = not defined here; Bpa4 = non-natural residue; Amfe4 = not defined here; Bzgly = not defined here; Hpgly = not defined here; dCfe4 = not defined here; Afe4 = not defined here; azaGly = NNC(=O)O; Sar = CNCC(=O)O

Tests used:
[1] = In vitro metabolic stability in mouse liver homogenate at 37° C.; type: in vitro ADME; conditions: for remaining at 1 h, 0.3 mg/mL: female, Tac:NCr:Foxn1nu/nu, mouse, tissue homogenate, pH 7.2
Procedure: Livers from 10 female Tac:NCr:Foxn1^nu/nu mice were excised, rinsed with ice cold PBS (no Ca^++ or Mg^++) and weighed. The tissues were minced with scissors in Petri dishes on ice with Tris buffered saline (Pierce BupH™ Tris buffered saline packs, #28376; 25 mM Tris, 150 mM NaCl, pH 7.2). After mincing, the tissues were dounce homogenized, and the total volume adjusted with ice cold Tris buffer (4 mL for every gram of excised tissue). The homogenate was centrifuged at ˜4000×g for 10 min at 4° C. The supernatants were aliquoted into Eppendorf tubes on ice (200 and 100 μl volumes) and stored at −80° C. Kidney homogenates were similarly prepared. […] The mixture was centrifuged at 4° C. for 20 min at 20,000×g to precipitate the protein; 10 μL (˜7.6 μCi) of the supernatant was injected into the HPLC for the analysis. […] Peaks at these retention times were also observed in the in vivo plasma sample (FIG. 1). […] After 0 and 60 min, the sample was removed from the incubator, immediately cooled on ice and 2 μL of 10 mM EDTA and 0.2 mL of ice-cooled MeOH were added, mixing after each addition. The proteins in the sample were separated by centrifugation at 14,000 rpm for 20 min. The supernatant was harvested and, in the samples spiked with the ^177Lu-analog, the radioactivity was measured using a Capintec dose calibrator to determine recovery. The sample was then analyzed by HPLC. […] After 0 and 60 min, the sample was removed from the incubator, immediately cooled on ice and 2 μL of 10 mM EDTA and 0.24 mL of ice-cooled methanol was added, mixing after each addition. The proteins in the sample were separated by centrifugation at 14,000 rpm for 20 min. The supernatant was collected and analyzed by LC/MS as described earlier herein.

[2] = tested on: LHRH binding sites on human ovarian cancer cells (EFO-27);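 also: Cell-associated radioactivity on confluent EFO-27 monolayers in 96-well plates, measured by microplate scintillation counting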
[3] = biological target: LHRH binding sites on EFO-27 human ovarian cancer cells (human); assay: competition with [125I-Tyr8]BRU-2477 on EFO-27 cells
[4] = biological target: LHRH receptor (LHRH binding sites) on EFO-27 human ovarian cancer cells (human); assay: competition with [125I-Tyr8]BRU-2477 for binding to EFO-27 cells
[5] = biological target: LHRH receptor (LHRH binding sites) on EFO-27 human ovarian cancer cells (human); assay: competition with [125I-Tyr8]BRU-2477, EFO-27 cells
[6] = biological target: LHRH receptor (LHRH binding sites) on EFO-27 human ovarian cancer cells (human); assay: competition with [125I-Tyr8]BRU-2477 for binding to EFO-27 cells; remark: listed apart in the source

Molecule	EC50 [3]	EC50 [4]	further results
N=C(N)NCCC[C@H](NC(=O)[C@@H](Cc1ccc2ccccc2c1)NC(=O)CN1CCN(CC(=O)O)CCN(CC(=O)O)CCN(CC(=O)O)CC1)C(=O)N[C@@H](Cc1c[nH]c2ccccc12)C(=O)N[C@@H](CO)C(=O)N[C@@H](Cc1c[nH]cn1)C(=O)N[C@H](CCCNC(=N)N)C(=O)N[C@@H](Cc1c[nH]c2ccccc12)C(=O)N[C@@H](Cc1ccc(C(=O)c2ccccc2)cc1)C(=O)N1CCCC[C@H]1C(=O)NNC(N)=O [Lu-BRU-2996]			remaining at 1 h, 0.3 mg/mL [1]: 71.7 ± 2.9%
N=C(N)NCCC[C@H](NC(=O)[C@@H](Cc1ccc2ccccc2c1)NC(=O)CN1CCN(CC(=O)O)CCN(CC(=O)O)CCN(CC(=O)O)CC1)C(=O)N[C@@H](Cc1c[nH]c2ccccc12)C(=O)N[C@@H](CO)C(=O)N[C@@H](Cc1c[nH]cn1)C(=O)N[C@H](CCCNC(=N)N)C(=O)N[C@@H](Cc1c[nH]c2ccccc12)C(=O)N[C@@H](Cc1ccc(C(=O)c2ccccc2)cc1)C(=O)N1C[C@H](N)C[C@H]1C(=O)NNC(N)=O [Lu-BRU-2995]			remaining at 1 h, 0.3 mg/mL [1]: 98.7 ± 0.1%
N=C(N)NCCC[C@H](NC(=O)[C@@H](Cc1ccc2ccccc2c1)NC(=O)CN1CCN(CC(=O)O)CCN(CC(=O)O)CCN(CC(=O)O)CC1)C(=O)N[C@@H](Cc1c[nH]c2ccccc12)C(=O)N[C@@H](CO)C(=O)N[C@@H](Cc1c[nH]cn1)C(=O)N[C@H](CCCNC(=N)N)C(=O)N[C@@H](Cc1c[nH]c2ccccc12)C(=O)N[C@@H](Cc1ccc(C(=O)c2ccccc2)cc1)C(=O)N1C[C@H](F)C[C@H]1C(=O)NNC(N)=O [Lu-BRU-2994]			remaining at 1 h, 0.3 mg/mL [1]: 45.7 ± 1.2%; EC50 ([2]; Table 22, unit inferred): 600 nM
N=C(N)NCCC[C@H](NC(=O)[C@@H](Cc1ccc2ccccc2c1)NC(=O)CN1CCN(CC(=O)O)CCN(CC(=O)O)CCN(CC(=O)O)CC1)C(=O)N[C@@H](Cc1c[nH]c2ccccc12)C(=O)N[C@@H](CO)C(=O)N[C@@H](Cc1c[nH]cn1)C(=O)N[C@H](CCCNC(=N)N)C(=O)N[C@@H](Cc1c[nH]c2ccccc12)C(=O)N[C@@H](Cc1ccc(C(=O)c2ccccc2)cc1)C(=O)N1C[C@H](N)C[C@H]1C(=O)NNC(N)=O [BRU-2995]			metabolism in liver homogenate [1]: no metabolism was observed; EC50 ([2]; Table 19: analogs used in the stabilization studies): 410 nM
N=C(N)NCCC[C@H](NC(=O)[C@@H](Cc1ccc2ccccc2c1)NC(=O)CN1CCN(CC(=O)O)CCN(CC(=O)O)CCN(CC(=O)O)CC1)C(=O)N[C@@H](Cc1c[nH]c2ccccc12)C(=O)N[C@@H](CO)C(=O)N[C@@H](Cc1c[nH]cn1)C(=O)N[C@H](CCCNC(=N)N)C(=O)N[C@@H](Cc1c[nH]c2ccccc12)C(=O)N[C@@H](Cc1ccc(C(=O)c2ccccc2)cc1)C(=O)N1CSC[C@H]1C(N)=O [Lu-BRU-3072]			remaining at 1 h, 0.3 mg/mL ([1]; liver homogenate at 37° C. for 60 min, mean ± SD, n = 3, read-out: % remaining (% of parent remaining)): 98.5 ± 0.2%; Stabilized relative to parent? ([1]; liver homogenate at 37° C. for 60 min, compared to Lu-BRU-2813 or unstabilized peptide): Yes
N=C(N)NCCC[C@H](NC(=O)[C@@H](Cc1ccc2ccccc2c1)NC(=O)CN1CCN(CC(=O)O)CCN(CC(=O)O)CCN(CC(=O)O)CC1)C(=O)N[C@@H](Cc1c[nH]c2ccccc12)C(=O)N[C@@H](CO)C(=O)N[C@@H](Cc1c[nH]cn1)C(=O)N[C@H](CCCNC(=N)N)C(=O)N[C@@H](Cc1c[nH]c2ccccc12)C(=O)N[C@@H](Cc1ccc(C(=O)c2ccccc2)cc1)C(=O)N1CC[C@H]1C(=O)NNC(N)=O [Lu-BRU-2993]			remaining at 1 h, 0.3 mg/mL [1]: 14.9 ± 13.2%
N=C(N)NCCC[C@H](NC(=O)[C@@H](Cc1ccc2ccccc2c1)NC(=O)CN1CCN(CC(=O)O)CCN(CC(=O)O)CCN(CC(=O)O)CC1)C(=O)N[C@@H](Cc1c[nH]c2ccccc12)C(=O)N[C@@H](CO)C(=O)N[C@@H](Cc1c[nH]cn1)C(=O)N[C@H](CCCNC(=N)N)C(=O)N[C@@H](Cc1c[nH]c2ccccc12)C(=O)N[C@@H](Cc1ccc(C(=O)c2ccccc2)cc1)CN1CCC[C@H]1C(=O)NNC(N)=O [Lu-BRU-3081] ({DOTA}-[d2Nal]RWSH[dR]W-X1)			remaining at 1 h, 0.3 mg/mL [1]: 100%
N=C(N)NCCC[C@@H](NC(=O)[C@H](Cc1c[nH]cn1)NC(=O)[C@H](CO)NC(=O)[C@H](Cc1c[nH]c2ccccc12)NC(=O)[C@H](Cc1c[nH]cn1)NC(=O)[C@@H]1CCC(=O)N1)C(=O)N[C@@H](Cc1c[nH]c2ccccc12)C(=O)N[C@@H](Cc1ccc(O)cc1)C(=O)N1CSC[C@H]1C(=O)NNC(N)=O [BRU-3124] (HELM PEPTIDE1{[Glp].H.W.S.H.[dR].W.Y.[O=C([C@@H]1CSCN1[*:1])[*:2]].[O=C(NN[*:1])[*:2]].[am]}$$$$V2.0)			remaining at 1 h, 0.3 mg/mL [1]: 38.7 ± 5.9%
XHWSHXWXPX (as printed: DO3A10CM-Sar-His-Trp-Ser-His-Darg-Trp-Nal2-Pro-azaGly-NH2) [BRU-2624]	2010 nM	2010 nM	
DO3A10CM-G[Bzgly]HWSH[dR]W[Bpa]P[azaGly]-NH2 (reading uncertain; also: printed as DO3A10CM-Gly-Bzgly-His-Trp-Ser-His-Darg-Trp-Bpa4-Pro-azaGly-NH2) [BRU-2792]	2270 nM	1800 nM	
DO3A10CM-G[Hpgly]HWSH[dR]W[Bpa]P[azaGly]-NH2 (reading uncertain; also: printed as DO3A10CM-Gly-Hpgly-His-Trp-Ser-His-Darg-Trp-Bpa4-Pro-azaGly-NH2) [BRU-2797]	450 nM	450 nM	EC50 [5]: 450 nM
XHWSHXWXPX (as printed: DO3A10CM-Sar-His-Trp-Ser-His-Darg-Trp-Dip-Pro-azaGly-NH2) [BRU-2721]	4550 nM	4550 nM	
XHWSHXWXPX (as printed: DO3A10CM-Sar-His-Trp-Ser-His-Darg-Trp-F5fe-Pro-azaGly-NH2) [BRU-2722]	4620 nM	4620 nM	
XHWSHXWXPX (as printed: DO3A10CM-Sar-His-Trp-Ser-His-Darg-Trp-Cfe4-Pro-azaGly-NH2) [BRU-2725]	2260 nM	2260 nM	
XXHWSHXWXPX (as printed: DO3A10CM-Gly-Abz4-Sar-His-Trp-Ser-His-Darg-Trp-Bpa4-Pro-azaGly-NH2 (Gly-Abz4 is the linker)) [BRU-2696]		440 nM	EC50 [5]: 440 nM; EC50 [6]: 650 nM
DO3A10CM-G[d1Nal]HWSH[dR]W[Bpa4]P[azaGly]-NH2 (reading uncertain; also: printed as DO3A10CM-Gly-Dnal1-His-Trp-Ser-His-Darg-Trp-Bpa4-Pro-azaGly-NH2) [BRU-2766]	620 nM	620 nM	EC50 [6]: 650 nM
XHWSHXWXPX (as printed: DO3A10CM-Sar-His-Trp-Ser-His-Darg-Trp-Thy-Pro-azaGly-NH2) [BRU-2823]	1610 nM	1610 nM	
{DO3A10CM(3)}-G[d2Nal][dCfe4][d3Pal]SH[dR]WYP[dA]-NH2 (reading uncertain; also: printed as DO3A10CM-Gly-Dnal2-Dcfe4-Dpal3-Ser-His-Darg-Trp-Tyr-Pro-Dala-NH2) [BRU-2644]		2910 nM	
XHWSHXWXPX (as printed: DO3A10CM-Meala-His-Trp-Ser-His-Darg-Trp-Bpa4-Pro-azaGly-NH2) [BRU-2736]	1420 nM	1420 nM	
XFWSHXWXPX (as printed: DO3A10CM-Sar-Phe-Trp-Ser-His-Darg-Trp-Bpa4-Pro-azaGly-NH2) [BRU-2738]		1220 nM	
{DO3A10CM″}-[Sar][His(1-Me)]WSH[dR]W[Bpa]P[azaGly]-NH2 [BRU-2741]	2990 nM	2990 nM	
DO3A10CM-[Sar][Amfe4]WSH[dR]W[Bpa4]P[azaGly]-NH2 (reading uncertain; also: printed as DO3A10CM-Sar-Amfe4-Trp-Ser-His-Darg-Trp-Bpa4-Pro-azaGly-NH2) [BRU-2756]	280 nM	280 nM	
XHWSHXWXPX (as printed: DO3A10CM-Damfe4-His-Trp-Ser-His-Darg-Trp-Bpa4-Pro-azaGly-NH2) [BRU-2757]	260 nM	260 nM	EC50 [5]: 260 nM
XHWSHXWXPX (as printed: DO3A10CM-Dafe4-His-Trp-Ser-His-Darg-Trp-Bpa4-Pro-azaGly-NH2) [BRU-2810]	980 nM	980 nM	
DO3A10CM-[d2Nal][Afe4]WSH[dR]W[Bpa]P[azaGly]-NH2 (reading uncertain; also: printed as DO3A10CM-Dnal2-Afe4-Trp-Ser-His-Darg-Trp-Bpa4-Pro-azaGly-NH2) [BRU-2812]		3690 nM	
XHWSHXWXPX (as printed: DO3A10CM-Dphe-His-Trp-Ser-His-Darg-Trp-Bpa4-Pro-azaGly-NH2) [BRU-2894]	2000 nM	2000 nM	
